Measurements taken from publication PMC3713477.

Test system: 3E10 lupus anti-DNA autoantibody (mouse)
Assay: EMSA
Conditions: 0-10 uM 3E10, 30 min at 4 C, buffer, salt and pH not given (ref 28)

In order of rising Kd:
1. duplex DNA with splayed single-stranded ends  200 nM
2. single-stranded DNA  200 nM
3. duplex DNA with 5' single-stranded tail  200 nM
4. duplex DNA with 3' single-stranded tail  200 nM
5. blunt-end duplex DNA  400 nM
6. duplex DNA with internal bubble (heterology)  400 nM
